# Test results published in patent US20070003522A1 (published 2007).
# Biological target: T1, mouse transferrin receptor 1 (TfR1) on TRH3 cells (293T cells stably expressing mouse TfR1) (mouse, UniProt Q62351 1-763)
# T1 construct: whole, on cells; also called mTfR1; CD71
# Assay: FACS on TRH3 cells, anti-TfR1 antibody staining after incubation with pseudovirus
# T1 sequence (Q62351 whole entry): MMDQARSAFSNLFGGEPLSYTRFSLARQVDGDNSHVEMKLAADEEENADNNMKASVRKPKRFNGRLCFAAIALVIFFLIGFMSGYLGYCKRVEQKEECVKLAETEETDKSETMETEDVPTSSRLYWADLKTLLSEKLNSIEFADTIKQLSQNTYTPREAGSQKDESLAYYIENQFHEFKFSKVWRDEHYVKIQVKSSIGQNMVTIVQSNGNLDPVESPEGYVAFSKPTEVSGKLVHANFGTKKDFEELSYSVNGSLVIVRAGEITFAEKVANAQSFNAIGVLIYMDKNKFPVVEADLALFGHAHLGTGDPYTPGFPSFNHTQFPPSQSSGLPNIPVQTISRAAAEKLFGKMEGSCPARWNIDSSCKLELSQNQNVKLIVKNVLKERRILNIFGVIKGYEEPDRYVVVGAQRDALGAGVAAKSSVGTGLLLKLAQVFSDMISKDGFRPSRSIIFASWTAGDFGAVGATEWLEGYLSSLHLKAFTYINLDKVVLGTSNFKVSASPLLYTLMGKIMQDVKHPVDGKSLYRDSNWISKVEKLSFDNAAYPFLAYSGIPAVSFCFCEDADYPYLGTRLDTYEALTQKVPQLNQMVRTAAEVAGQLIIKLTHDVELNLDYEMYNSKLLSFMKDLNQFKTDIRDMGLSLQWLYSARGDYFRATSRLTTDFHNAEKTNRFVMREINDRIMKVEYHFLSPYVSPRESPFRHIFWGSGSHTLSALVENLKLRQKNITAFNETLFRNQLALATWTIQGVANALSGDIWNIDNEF
binder,measurement,value
"wild-type MMTV (C3H strain) env protein on pseudotyped MoMLV virus (other, On virions it is processed into SU (gp52) and TM (gp36); also called wild type pseudovirus; wt) ESYWAYLPKPPILHPVGWGNTDPIRVLTNQTIYLGGSPDFHGFRNMSGNVHFEGKSDTLPICFSFSFSTPTGCFQVDKQVFLSDTPTVDNNKPGGKGDKRRMWELWLTTLGNSGANTKLVPIKKKLPPKYPHCQIAFKKDAFWEGDESAPPRWLPCAFPDQGVSFSPKGALGLLWDFSLPSPSVDQSDQIKSKKDLFGNYTPPVNKEVHRWYEAGWVEPTWFWENSPKDPNDRDFTALVPHTELFRLVAASRYLILKRPGFQEHDMIPTSACVTYPHAILLGLPQLIDIEKRGSTFHISCSSCRLTNCLDSSAYDYAAIIVKRPPYVLLPVDIGDEPWFDDSAIQTFRYATDLIRAKRFVAAIILGISALIAIITSFAVATTALVKEMQTATFVNNLHRNVTLALSEQRIIDLKLEARLNALEEVVLELGQDVANLKTRMSTRCHANYDFICVTPLPYNASESWERTKAHLLGIWNDNEISYNIQELTNLISDMSKQHIDTVDLSGLAQSFANGVKALNPLDWTQYFIFIGVGALLLVIVLMIFPIVFQCLAKSLDQVQSDLNVLLLKKKKGGNAAPAAEMVELPRVSYT",binding result,binds
